Entries after “also recorded” stand apart in the source; their conditions may differ.
Tests used:
[1] = Turnover number of atorvastatin oxidation by CYP102A1 enzymes (HPLC); assay type: biochemical; settings: 80 μM atorvastatin, FIG. 13; for turnover number in oxidation of atorvastatin: 50 pmol enzyme, NADPH-generating system, 37° C., 30 minutes, production of 4-hydroxylated metabolite by HPLC
Description: It was examined whether the wild-type CYP102A1, the CYP102A1 mutants, and the chimeras derived from the CYP1.02A1 mutants may oxidize atorvastatin. Typical steady-state reactions was performed by adding 50 pmol CYP102A1 and 80 μM substrate to 0.25 ml of 100 mM potassium phosphate buffer solution (pH 7.4). In order to initiate reactions, the NADPH-generating system was added thereto (final concentrations: 10 mM glucose 6-phosphate, 0.5 mM NADP^+, and 1 IU […] per ml). A stock solution of atorvastatin (20 mM) was prepared in DMSO and diluted into the enzyme reaction solution to have a final organic solvent concentration of <1% (v/v).
In order to measure human CYP3A4 activity, 50 pmol P450, 100 pmol NADPH-P450 reductase (CPR), 100 pmol cytochrome b5, and 45 μM L-α-dilauroyl-sn-glycero-3-phosphocholine (DLPC) were used instead of 50 pmol CYP102A1. After the reaction solution was reacted for 30 minutes at 37° C., the reaction was terminated with 2-fold of ice-cold dichloromethane.
After centrifugation of the reaction mixture, a supernatant was removed and a solvent was evaporated under nitrogen gas and analyzed using HPLC. A sample (30 ul) was injected into Gemini C18 column (4.6 mm×150 mm, 5 um. Phenomenex. Torrance, Calif.). As a mobile phase A, water containing 0.1% formic acid/acetonitrile (80/20, v/v) was used, and as a mobile phase B, acetonitrile/0.1% formic acid (90/10, v/v) was used. The mobile phase A/B (70/30, v/v) was flowed at a rate of 1 ml·min^−1 using a gradient pump (LC-20AD, Shimadzu, Kyoto, Japan). Elution solutions were detected by UV at 260 nm.
In order to examine whether or not CYP102A1 (P450 BM3) may oxidize atorvastatin, the abilities of the wild-type CYP102A1 (P450 BM3), the mutants thereof, and the chimeras derived from the CYP102A1 mutants to oxidize atorvastatin were measured at a fixed substrate concentration (80 μM).
In order to recognize production rate of atorvastatin oxides by wild-type CYP102A1, CYP102A1 mutants, and chimeras derived from the CYP102A1 mutants, the turnover number was determined in the reaction using 80 μM statin.
The term “turnover number” means the number of substrate molecules that a molecule of an enzyme may convert into products per minute and indicates conversion frequency.
The production rate of 4-hydroxylated metabolite was determined by HPLC as described above.

[2] = Total turnover number (TTN) of atorvastatin oxidation; assay type: biochemical; settings: reacted for 4 hours
Description: In order to recognize production rate of atorvastatin metabolites by the CYP102A1 mutant (#16 in Table 2) and the chimeras (#16A1V2 and #17A1V2) derived from the CYP102A1 mutants, total turnover numbers (TTNs; mol product/mol catalyst) were determined in reactions using total 240 μM atorvastatin.
The term “total turnover number (TTN)” means the number of substrate molecules converted into metabolites by enzymes for the total reaction time.
The total turnover numbers (TTNs) were determined by comparing the results under three conditions. First, the reaction was performed by adding a NADPH-generating system at 37° C. for 1 hour in the presence of 80 μM substrate. In addition, second, after reaction was performed for 1 hour in the presence of 80 μM substrate, 80 μM substrate was additionally added to the reaction mixture, and the reaction was further performed for 1 hour. Finally, after reaction was performed for 1 hour in the presence of 80 μM substrate, 80 μM substrate was additionally added to the reaction mixture, and the reaction was further performed for 1 hour. Then, 80 μM substrate was additionally added to the reaction mixture, and the reaction was further performed for 2 hours.
The production rate of the atorvastatin metabolites was determined using HPLC. […]

Molecule	turnover number in oxidation of atorvastatin [1]	activity compared with human CYP3A4 (turnover number) [1]	activity compared with human CYP3A4 (total turnover number) [2]
Mutant #17: CYP102A1 mutant R47L/E64G/F81I/F87V/E143G/L188Q/E267V (SEQ ID NO 20) (protein, CYP102A1 mutant #17) MTIKEMPQPKTFGELKNLPLLNTDKPVQALMKIADELGEIFKFEAPGLVTRYLSSQRLIKEACDGSRFDKNLSQALKFVRDIAGDGLVTSWTHEKNWKKAHNILLPSFSQQAMKGYHAMMVDIAVQLVQKWERLNADEHIEVPGDMTRLTLDTIGLCGFNYRFNSFYRDQPHPFITSMVRALDEAMNKQQRANPDDPAYDENKRQFQEDIKVMNDLVDKIIADRKASGEQSDDLLTHMLNGKDPETGEPLDDENIRYQIITFLIAGHVTTSGLLSFALYFLVKNPHVLQKAAEEAARVLVDPVPSYKQVKQLKYVGMVLNEALRLWPTAPAFSLYAKEDTVLGGEYPLEKGDELMVLIPQLHRDKTIWGDDVEEFRPERFENPSAIPQHAFKPFGNGQRACIGQQFALHEATLVLGMMLKHFDFEDHTNYELDIKETLTLKPEGFVVKAKSKKIPLGGIPSPSTEQSAKKVRKKVENAHNTPLLVLYGSNMGTAEGTARDLADIAMSKGFAPQVATLDSHAGNLPREGAVLIVTASYNGHPPDNAKQFVDWLDQASADDVKGVRYSVFGCGDKNWATTYQKVPAFIDETLAAKGAENIADRGEADASDDFEGTYEEWREHMWSDVAAYFNLDIENSEDNKSTLSLQFVDSAADMPLAKMHGAFSANVVASKELQQLGSERSTRHLEIALPKEASYQEGDHLGVIPRNYEGIVNRVTARFGLDASQQIRLEAEEEKLAHLPLGKTVSVEELLQYVELQDPVTRTQLRAMAAKTVCPPHKVELEALLEKQAYKEQVLAKRLTMLELLEKYPACEMEFSEFIALLPSISPRYYSISSSPHVDEKQASITVSVVSGEAWSGYGEYKGIASNYLANLQEGDTITCFVSTPQSGFTLPKDSETPLIMVGPGTGVAPFRGFVQARKQLKEQGQSLGEAHLYFGCRSPHEDYLYQEELENAQNEGIITLHTAFSRVPNQPKTYVQHVMERDGKKLIELLDQGAHFYICGDGSQMAPDVEATLMKSYADVYEVSEADARLWLQQLEEKGRYAKDVWAG	high turnover number		
#16A1V2: chimera: heme domain of mutant #16 fused to V2 reductase domain of Table 4 (SEQ ID NO 22) (protein, chimera #16A1V2) MTIKEMPQPKTFGELKNLPLLNTDKPVQALMKIADELGEIFKFEAPGRVTRYLSSQRLIKEACDESRFDKNLSQALKFVRDFAGDGLFTSWTHEKNWKKAHNILLPSFSQQAMKGYHAMMVDIAVQLVQKWERLNADEHIEVPEDMTRLTLDTIGLCGFNYRFNSFYRDQPHPFITSMVRALDEAMNKLQRANPDDPAYDENKRQFQEDIKVMNDLVDKIIADRKASGEQSDDLLTHMLNGKDPETGEPLDDENIRYQIITFLIAGHETTSGLLSFALYFLVKNPHVLQKAAEEAARVLVDPVPSYKQVKQLKYVGMVLNEALRLWPTAPAFSLYAKEDTVLGGEYPLEKGDELMVLIPQLHRDKTIWGDDVEEFRPERFENPSAIPQHAFKPFGNGQRACIGQQFALHEATLVLGMMLKHFDFEDHTNYELDIKETLTLKPEGFVVKAKSKKIPLGGIPSPSTEQSAKKVRKKVENAHNTPLLVLYGSNMGTAEGTARDLADIAMSKGFAPQVATLDSHAGNLPREGAVLIVTASYNGHPPDNAKQFVDWLDQASADDVKGVRYSVFGCGDKNWATTYQKVPAFIDETLAAKGAENIADRGEADASDDFEGTYEEWREHMWSDVAAYFNLDIENSEDNKSTLSLQFVDSAADMPLAKMHGAFSANVVASKELQQLGSERSTRHLEIALPKEASYQEGDHLGVIPRNYEGIVNRVTARFGLDASQQIRLEAEEEKLAHLPLGKTVSVEELLQYVELQDPVTRTQLRAMAAKTVCPPHKVELEALLEKQAYKEQVLAKRLTMLELLEKYPACEMEFSEFIALLPSISPRYYSISSSPHVDEKQASITVSVVSGEAWSGYGEYKGIASNYLANLQEGDTITCFVSTPQSGFTLPKDSETPLIMVGPGTGVAPFRGFVQARKQLKEQGQSLGEAHLYFGCRSPHEDYLYQEELENAQNEGIITLHTAFSRVPNQPKTYVQHVMERDGKKLIELLDQGAHFYICGDGSQMAPDVEATLMKSYADVYEVSEADARLWLQQLEEKGRYAKDVWAG	high turnover number; also recorded: most excellent turnover number	same activity as that of the human CYP3A4	activity higher than that of the human CYP3A4
Mutant #16: CYP102A1 mutant R47L/F81I/F87V/E143G/L188Q/E267V (SEQ ID NO 18) (protein, CYP102A1 mutant#16) MTIKEMPQPKTFGELKNLPLLNTDKPVQALMKIADELGEIFKFEAPGLVTRYLSSQRLIKEACDESRFDKNLSQALKFVRDIAGDGLVTSWTHEKNWKKAHNILLPSFSQQAMKGYHAMMVDIAVQLVQKWERLNADEHIEVPGDMTRLTLDTIGLCGFNYRFNSFYRDQPHPFITSMVRALDEAMNKQQRANPDDPAYDENKRQFQEDIKVMNDLVDKIIADRKASGEQSDDLLTHMLNGKDPETGEPLDDENIRYQIITFLIAGHVTTSGLLSFALYFLVKNPHVLQKAAEEAARVLVDPVPSYKQVKQLKYVGMVLNEALRLWPTAPAFSLYAKEDTVLGGEYPLEKGDELMVLIPQLHRDKTIWGDDVEEFRPERFENPSAIPQHAFKPFGNGQRACIGQQFALHEATLVLGMMLKHFDFEDHTNYELDIKETLTLKPEGFVVKAKSKKIPLGGIPSPSTEQSAKKVRKKAENAHNTPLLVLYGSNMGTAEGTARDLADIAMSKGFAPQVATLDSHAGNLPREGAVLIVTASYNGHPPDNAKQFVDWLDQASADEVKGVRYSVFGCGDKNWATTYQKVPAFIDETLAAKGAENIADRGEADASDDFEGTYEEWREHMWSDVAAYFNLDIENSEDNKSTLSLQFVDSAADMPLAKMHGAFSTNVVASKELQQPGSARSTRHLEIELPKEASYQEGDHLGVIPRNYEGIVNRVTARFGLDASQQIRLEAEEEKLAHLPLAKTVSVEELLQYVELQDPVTRTQLRAMAAKTVCPPHKVELEALLEKQAYKEQVLAKRLTMLELLEKYPACEMKFSEFIALLPSIRPRYYSISSSPRVDEKQASITVSVVSGEAWSGYGEYKGIASNYLAELQEGDTITCFISTPQSEFTLPKDPETPLIMVGPGTGVAPFRGFVQARKQLKEQGQSLGEAHLYFGCRSPHEDYLYQEELENAQSEGIITLHTAFSRMPNQPKTYVQHVMEQDGKKLIELLDQGAHFYICGDGSQMAPAVEATLMKSYADVHQVSEADARLWLQQLEEKGRYAKDVWAG	high turnover number		
